Here are results for two molecules from patent US20130295073A1, “Use of pegylated recombinant human arginase for treatment of leukemia” (Bio-Cancer Treatment International Ltd., priority 2010, published 2013).

Assay [1] has as its system Kasumi-1a, ML2, HL60, K562, NB4, ALL-SIL and Jurkat. The assay can be described thus: Combination effect of BCT-100 with Doxorubicin on leukemia cell lines. Conditions: FIG. 7. The format is cell-based. The text has this: The combination effect of BCT-100 with Doxorubicin on various leukemia cell lines was studied. The leukemia cell lines tested were myeloid leukemia cell lines Kasumi-1a, ML2, HL60, K562, NB4 and lymphocytic leukemia cell lines ALL-SIL and Jurkat.

In assay [2] the test system is HL60 cells. The assay can be described thus: Liver, spleen and sternum cytology of HL60-inoculated mice. The format is in vivo. Conditions: HL60-inoculated NOD/SCIDS mice; BCT-100 50 U/mice i.p. weekly for 4 weeks; doxorubicin 3 mg/kg/day i.p.; FIG. 8. As for the experimental part: (§1) HL60 cells were injected to the tail of NOD/SCIDS mice. Treatment commenced on day 14. The animals were divided into 4 groups. The Doxorubicin group received treatment by doxorubicin, which was administrated at 3 mg/kg/day by intraperitoneal injection 3 times weekly for the first week, thereafter once per week for 4 weeks. The BCT-100 group received treatment by BCT-100, which was administrated at 50 U/mice by intraperitoneal injection weekly for 4 weeks. The combinational group received treatment of both Doxorubicin and BCT-100, administrated as described above. The control group received intraperitoneal injection of saline. […] In the control group, infiltration of leukemia in liver, spleen and sternum was observed.

The subject of the next assay is ML2. The assay can be described thus: IC50 of BCT-100 in leukemia cell lines. The format is cell-based. The settings on record: ML2, myeloid leukemia. The text has this:
(§2) The inhibitory effect of BCT-100 in acute myeloid leukemia cells (Kasumi-1a, ML2, HL60, K562 and NB4) and T-cell leukemia cells (Jurkat, ALL-SIL, HPB-ALL and TALL-1) was studied.

In a further assay the test system is TALL-1. In words: IC50 of BCT-100 in leukemia cell lines. In kind it is cell-based. Conditions: TALL-1, T-cell leukemia.
From the text: as §2

Assay [3] concerns HL60. The assay can be described thus: IC50 of BCT-100 in leukemia cell lines. The format is cell-based. Conditions: HL60, myeloid leukemia.
From the text: as §2

The test system of the next assay is All-SIL. In words: IC50 of BCT-100 in leukemia cell lines. The format is cell-based. The settings on record: T-cell leukemia.
From the text: as §2

The next assay has as its system Kasumi-1a. In words: IC50 of BCT-100 in leukemia cell lines. In kind it is cell-based. Conditions: myeloid leukemia.
From the text: as §2

The subject of assay [4] is NB4. In words: IC50 of BCT-100 in leukemia cell lines. The format is cell-based. The settings on record: NB4, myeloid leukemia.
From the text: as §2

The next assay has as its system Jurkat. In words: IC50 of BCT-100 in leukemia cell lines. The format is cell-based. The settings on record: T-cell leukemia.
From the text: as §2

Another assay concerns K562. In words: IC50 of BCT-100 in leukemia cell lines. In kind it is cell-based. Conditions: K562, myeloid leukemia.
From the text: as §2

A further assay concerns HPB-ALL. The assay can be described thus: IC50 of BCT-100 in leukemia cell lines. In kind it is cell-based. The settings on record: T-cell leukemia.
From the text: as §2

The subject of assay [5] is T-cell acute lymphocytic leukemia, acute myeloid leukemia, hepatocellular carcinoma and pancreatic cancer cell lines. In words: IC50 of BCT-100 in various cancer cell lines. In kind it is cell-based. The settings on record: FIG. 6. The text has this: The IC50 values of BCT-100 in various cancer cell lines were investigated. The cancer cell lines being tested were T-cell acute lymphocytic leukemia, acute myeloid leukemia, hepatocellular carcinoma and pancreatic cancer.

In a further assay the test system is HL-60. The assay can be described thus: Survival of HL60-inoculated mice. The format is in vivo. Conditions: HL-60-inoculated NOD/SCIDS mice; FIG. 9. As for the experimental part:
as §1
The effect of BCT-100 on the survival rate of HL-60-incoluated NOD/SCIDS mice was investigated. […] Thus BCT-100 can be administrated with Doxorubicin to treat leukemia, e.g., myeloid leukemia.

Assay [6] deals with HL60 cells. The assay can be described thus: Reorganization of promyelocytic leukemia nuclear bodies (immunostaining). The format is cell-based. Conditions: HL60, anti-promyelocytic leukemia immunostaining, vs DMSO control; FIG. 5.
Another assay deals with NB4 cells. In words: Granulocytic differentiation (CD11b expression, FACS). The settings on record: NB4, within 96-hour treatment; FIG. 4a, 4b. In kind it is cell-based. An excerpt: (§3) The induction of granulocytic differentiation in NB4 and HL60 cells was studied. […] Specifically, decrease in nuclear to cytoplasmic ratio, appearance of cytoplasmic granules, chromatin condensation and loss of nucleoli were observed.

The subject of assay [7] is HL60 cells. The description is as above. In kind it is cell-based. Conditions: HL60, within 96-hour treatment; FIG. 4b.
From the text: as §3

Assay [8] can be described thus: Arginine depletion in preclinical study. An excerpt: Arginase is a manganese-containing enzyme, catalyzing the conversion of arginine to ornithine and urea, the last step of the Urea Cycle.
For assay [9], the system named is U937. The assay can be described thus: Induction of apoptosis in leukemia cells. The format is cell-based. The settings on record: U937, arsenic sensitive; FIG. 2. As for the experimental part:
(§4) The effect of BCT-100 in inducing apoptosis in both arsenic sensitive (NB4 and U937) and arsenic resistant (HL60 and UF1) leukemia cell lines was tested. […] However, the apoptosis rate was low in HL60 and UF1 cells in the presence of arsenic, as these cell lines are arsenic resistant.

Assay [10] deals with UF1. The assay can be described thus: Induction of apoptosis in leukemia cells. In kind it is cell-based. The settings on record: UF1, arsenic resistant; FIG. 2. As for the experimental part: as §4
For assay [11], the system named is HL60. The assay can be described thus: Induction of apoptosis in leukemia cells. The settings on record: HL60, arsenic resistant; FIG. 2. In kind it is cell-based. As for the experimental part: as §4
Assay [12] relates to NB4. The assay can be described thus: Induction of apoptosis in leukemia cells. In kind it is cell-based. The settings on record: NB4, arsenic sensitive; FIG. 2. As for the experimental part:
as §4

The subject of a further assay is pmTOR. The assay can be described thus: Western blot of pmTOR expression in HL60. The settings on record: FIG. 3. The format is cell-based. As for the experimental part: (§5) Expression of Bax and pmTOR was assessed in leukemic cell line HL60 by western blotting with or without BCT-100 treatment using monoclonal antibodies against Bax and pmTOR respectively. The same blot was stripped and probed with anti-actin antibody for loading control. Apoptosis was determined by annexin V labeling. HL60 cells were cultured in medium with or without BCT-100 and the expression of annexin V were analyzed by flow-cytometry at 8, 16, 24, and 36 hrs after BCT-100 treatment.

A further assay concerns Bax. The assay can be described thus: Western blot of Bax expression in HL60. The format is cell-based. Conditions: 8 hrs after treatment and afterwards, FIG. 3. As for the experimental part: as §5
Assay [13] has as its system U937. The assay can be described thus: Cell viability in myelocytic leukemia cells. In kind it is cell-based. Conditions: U937, arsenic sensitive; FIG. 1a/1b. The text has this: (§6) The effect of BCT-100 on arsenic sensitive myelocytic cell lines (NB4 and U937) as well as arsenic resistant myelocytic cell lines (HL60 and UF1) was investigated.
(§7) Both the arsenic sensitive and resistant leukemia cells responded to the BCT-100 treatment.

The subject of assay [14] is UF1. The assay can be described thus: Cell viability in myelocytic leukemia cells. The settings on record: UF1, arsenic resistant; FIG. 1a/1b. The format is cell-based.
From the text: as §6, §7

The test system of assay [15] is HL60. The assay can be described thus: Cell viability in myelocytic leukemia cells. The format is cell-based. Conditions: HL60, arsenic resistant; FIG. 1a/1b.
From the text: as §6, §7

The subject of assay [16] is NB4. In words: Cell viability in myelocytic leukemia cells. Conditions: NB4, arsenic sensitive; FIG. 1a/1b. The format is cell-based.
From the text: as §6, §7

Regarding `COc1cccc2c1C(=O)c1c(O)c3c(c(O)c1C2=O)C[C@@](O)(C(=O)CO)C[C@@H]3O[C@H]1C[C@H](N)[C@H](O)[C@H](C)O1` [Doxorubicin, reference compound], the “therapeutic effect on leukemia cell lines” value in [1] was “effective in treating leukemia”. The “infiltration of leukemia in liver, spleen and sternum (cytology)” value in the assay on HL60 cells [2] is on record as “Modest infiltration”.

B1: BCT-100: pegylated recombinant human arginase; pegylating agent may be mPEG-SPA; preparation disclosed in U.S. Ser. No. 10/518,223 (protein, UniProt P05089 1-322, looked up)
Arginase-1: MSAKSRTIGIIGAPFSKGQPRGGVEEGPTVLRKAGLLEKLKEQECDVKDYGDLPFADIPNDSPFQIVKNPRSVGKASEQLAGKVAEVKKNGRISLVLGGDHSLAIGSISGHARVHPDLGVIWVDAHTDINTPLTTTSGNLHGQPVSFLLKELKGKIPDVPGFSWVTPCISAKDIVYIGLRDVDPGEHYILKTLGIKYFSMTEVDRLGIGKVMEETLSYLLGRKKRPIHLSFDVDGLDPSFTPATGTPVVGGLTYREGLYITEEIYKTGLLSGLDIMEVNPSLGKTPEEVTRTVNTAVAITLACFGLAREGNHKPIDYLNPPK
modifications: PEGylated (mPEG-SPA)
For B1, the IC50 in the assay on ML2 is 65 mU/mL; in the assay on TALL-1, 100 mU/mL; with HL60 [3], 55 mU/mL; in the assay with All-SIL it was 120 mU/mL; with Kasumi-1a it was 65 mU/mL; with NB4 [4], 60 mU/mL. For the same molecule, the IC50 in the assay on Jurkat amounted to 40 mU/mL; with K562, 25 mU/mL; in the assay with HPB-ALL, 110 mU/mL. In addition, the “effectiveness in cancer cell lines” value in assay [5] (T-cell acute lymphocytic leukemia, acute myeloid leukemia, hepatocellular carcinoma and pancreatic cancer) is given as “effective”. Besides, the “times more potent in leukemia and pancreatic cancer than in hepatocellular carcinoma” value in assay [5] (from IC50 values) was 6-10 times. For the same molecule, the “survival rate and survival days” value in the assay with HL-60 was “increased as compared to the control group”. For the same molecule, the “pattern of promyelocytic leukemia nuclear bodies” value in the assay on HL60 cells [6] was “the microspeckled pattern disappeared and the size and brightness of the promyelocytic leukemia bodies returned to normal”. Also, the granulocytic differentiation entry with NB4 cells and in the assay with HL60 cells [7] was “induced granulocytic differentiation” each time. Moreover, in assay [1], the “therapeutic effect on leukemia cell lines” value is on record as “effective in treating leukemia”. For the same molecule, the arginine depletion result in assay [8] is on record as “efficacious in inducing arginine depletion in dose-dependent manner”. Further, the apoptosis rate entry in the assay with U937 [9], in the assay with UF1 [10], in the assay with HL60 [11] and with NB4 [12] was “effective in inducing apoptosis” in each case. In the assay on pmTOR, the “protein level of pmTOR” value is reported as “down-regulated”. The “infiltration of leukemia in liver, spleen and sternum (cytology)” value in the assay on HL60 cells [2] was “Modest infiltration”. The Bax level result with Bax is recorded as “up-regulated”. Further, the cell viability result with U937 [13], in the assay with UF1 [14], with HL60 [15] and in the assay with NB4 [16] was “dropped with increasing amount of BCT-100” each time.
